From the supplement of paper PMC10899765

What was measured:
Conditions in all cases: 20 nM; 72 h
MCF10A [1] = assay: percent viability (nuclei count relative to siNT); higher = more viable cells
Method: (§1)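 After 72 h, cells were fixed and stained with Hoechst and anti-fibrillarin, and nucleoli per nucleus were counted with CellProfiler. Values are plate-adjusted percent effect for the one-nucleolus and 5+ nucleoli phenotypes, normalised to siNT (0%) and to the positive controls siNOL11 or siKIF11 (100%), as the mean of biological triplicates. Percent viability is the nuclei count relative to siNT.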

MCF10A [2] = assay: 5+ nucleoli phenotype percent effect (relative to siNT 0% and siKIF11 100%); higher = more cells with five or more nucleoli
Method: as §1

MCF10A [3] = assay: one-nucleolus phenotype percent effect (relative to siNT 0% and siNOL11 100%); higher = more cells with one nucleolus (ribosome biogenesis inhibition)
Method: as §1

Row | Sequence | percent viability (MCF10A [1]) [%] | 5+ nucleoli phenotype percent effect (MCF10A [2]) [%] | one-nucleolus phenotype percent effect (MCF10A [3]) [%]
1 | AGGGAGGGUGUGGUAUGGAUGU [hsa-miR-6883-5p] | 42 | -4.87 | 8.82
2 | UCCCCUUCCUCCCUGCCCAG [hsa-miR-6756-3p] | 51.9 | 16.4 | -12.3
3 | AGAGGUUAUCCGUGUUAUGUUC [hsa-miR-655-5p] | 32.4 | -32.8 | 22.9
4 | UUUCUUCUUAGACAUGGCAACG [hsa-miR-4659a-3p] | 51.4 | -14.6 | -9.58
5 | GCCCUGACCUGUCCUGUUCUG [hsa-miR-4732-3p] | 64.3 | 21.5 | -20.3
6 | UGGAAGACUAGUGAUUUUGUUGU [hsa-miR-7-5p] | 51.8 | -32.4 | 25.5
7 | ACAGACUUGCUGUGAUGUUCA [hsa-miR-499b-5p] | 35.2 | -7.28 | 2.65
8 | UAGGGGUGGGGGAAUUCAGGGGUGU [hsa-miR-6782-5p] | 26.5 | 1.01 | -3.68
9 | CAGGCACGGGAGCUCAGGUGAG [hsa-miR-3622a-5p] | 27.1 | -21.7 | 42.3
10 | GGAUCCGAGUCACGGCACCA [hsa-miR-4454] | 56 | 0.148 | -14.9
11 | CAGCAGGGGAGAGAGAGGAGUC [hsa-miR-6510-5p] | 27.9 | -10.7 | 20.8
12 | ACCUGGCAUACAAUGUAGAUUU [hsa-miR-221-5p] | 36 | -26.8 | 62.6
13 | UCGGCCUGACCACCCACCCCAC [hsa-miR-1234-3p] | 75.7 | 54.9 | -20.1
14 | UCACCUGAGCUCCCGUGCCUG [hsa-miR-3622b-3p] | 107 | 29.9 | -20.9
15 | AAUUCCCUUGUAGAUAACCCGG [hsa-miR-3938] | 129 | 51.2 | -32
16 | UGGAUAUGAUGACUGAAA [hsa-miR-4791] | 71.5 | 4.66 | -7.67
17 | UGGCUUCUCUUGCACACCCAG [hsa-miR-6815-3p] | 19.9 | -12.3 | 62.9
18 | UAGCAAGAGAACCAUUACCAUU [hsa-miR-451b] | 71.6 | 3.42 | -10.8
19 | ACCAGGGCCAGCAGGGAAUGU [hsa-miR-6837-5p] | 19.9 | -15 | 33.6
20 | AGGAGGCAUCUUGAGAAAUGGA [hsa-miR-3612] | 16.9 | 5.34 | 33.4
21 | GUGAACGGGCGCCAUCCCGAGG [hsa-miR-887] | 73.2 | -3.19 | -1.47
22 | CUGGGUGAGGGCAUCUGUGGU [hsa-miR-6736-5p] | 24.3 | -27 | 34.4
23 | AAUUUACUCUGCAAUCUUCUCC [hsa-miR-4699-3p] | 87.9 | -0.943 | -12.5
24 | ACUGGACUUGGUGUCAGAUGG [hsa-miR-378h] | 80 | 41 | -14.6

Row | Sequence | percent viability (MCF10A [1]) [%] | 5+ nucleoli phenotype percent effect (MCF10A [2]) [%] | one-nucleolus phenotype percent effect (MCF10A [3]) [%]
25 | UAAAACUGCAGUUAUUUUUGC [hsa-miR-548ar-3p] | 122 | 38.3 | -24.2
26 | GGGGCUGGGGCCGGGGCCGAGC [hsa-miR-762] | 59.8 | 53.9 | -31.4
27 | ACAAAGUACAGCAUUAGCCUUAG [hsa-miR-3973] | 29.3 | 0.19 | -6.17
28 | AUAAGACGAGCAAAAAGCUUGU [hsa-miR-208a] | 100 | 14.9 | -6.61
29 | CGGCCCCACGCACCAGGGUAAGA [hsa-miR-874-5p] | 85.9 | 38.1 | -19.8
30 | ACUGACAGGAGAGCAUUUUGA [hsa-miR-3660] | 55 | 21.1 | -1.95
31 | UAUGUCUGCUGACCAUCACCUU [hsa-miR-654-3p] | 38 | -34.7 | 28.2
32 | UCUGGUAAGAGAUUUGGGCAUA [hsa-miR-4490] | 54.4 | 46.4 | -25.9
33 | AAGGCAGGGCCCCCGCUCCCC [hsa-miR-940] | 12.8 | -29.5 | 45.5
34 | UAAUACUGUCUGGUAAAACCGU [hsa-miR-429] | 112 | 61.9 | -19
35 | UGUAGAUACGAGCACCAGCCAC [hsa-miR-3935] | 38.5 | 20.9 | -7.2
36 | UGAGGCAGUAGAUUGAAU [hsa-miR-1827] | 16.7 | -33.8 | 60.2
37 | UGACCGAUUUCUCCUGGUGUUC [hsa-miR-29c-5p] | 105 | -8.5 | 21.1
38 | UUCUGCCUCUGUCCAGGUCCUU [hsa-miR-5001-3p] | 39.1 | -28.1 | 19.3
39 | UCUCAGCUGCUGCCCUCUCCAG [hsa-miR-6787-3p] | 116 | 41.8 | -24.6
40 | GGUCCAGAGGGGAGAUAGGUUC [hsa-miR-198] | 51.6 | 5.19 | -9.26
41 | UGAUGAUACAGGUGGAGGUAG [hsa-miR-3682-3p] | 31.5 | -7.38 | 19.3
42 | AGGAGGAUGGAGAGCUGGGCCAGA [hsa-miR-6894-5p] | 28.1 | 6.67 | 22.2
43 | AAAUUAUUGUACAUCGGAUGAG [hsa-miR-944] | 33.3 | -36.2 | 9.85
44 | UAGAUCUUUGACUCUGGCAGUCUCCAGG [hsa-miR-7161-3p] | 87.7 | 28.4 | -23.9
45 | CCAGGCUCUGCAGUGGGAACU [hsa-miR-3155a] | 32.5 | 30.4 | -2.13
46 | AGAGGUUGCCCUUGGUGAAUUC [hsa-miR-377-5p] | 22 | -35.2 | 36.3
47 | AAAGAUGGACAAUUGGCUAAAU [hsa-miR-4662b] | 38.3 | -25.7 | 49.4
48 | GGGUGGGGAUUUGUUGCAUUAC [hsa-miR-92a-2-5p] | 42.2 | -28.2 | 28.3
